Values belong to the binder of their own block, whether it stands above or below them.
How the values were obtained:
[1] = target: T1, Full length TNF-gamma-beta on the cell surface (human, UniProt O95150 1-251); assay: flow cytometry on HEK293F cells expressing full length TNF-gamma-beta
T1 construct: whole, on cells; also called TNF-gamma-beta expressing cells
T1 sequence (looked up): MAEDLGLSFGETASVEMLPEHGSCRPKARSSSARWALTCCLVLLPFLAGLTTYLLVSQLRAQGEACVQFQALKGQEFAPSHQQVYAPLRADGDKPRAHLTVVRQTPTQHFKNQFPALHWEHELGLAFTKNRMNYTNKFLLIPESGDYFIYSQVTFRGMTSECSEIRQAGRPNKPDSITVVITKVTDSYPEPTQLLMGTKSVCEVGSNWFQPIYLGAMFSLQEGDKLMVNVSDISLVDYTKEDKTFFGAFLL

[2] = target: T2, Murine FasL expressed on murine L929 cells (mouse, UniProt P41047 1-279); assay: cell-based or functional assay
T2 sequence (looked up): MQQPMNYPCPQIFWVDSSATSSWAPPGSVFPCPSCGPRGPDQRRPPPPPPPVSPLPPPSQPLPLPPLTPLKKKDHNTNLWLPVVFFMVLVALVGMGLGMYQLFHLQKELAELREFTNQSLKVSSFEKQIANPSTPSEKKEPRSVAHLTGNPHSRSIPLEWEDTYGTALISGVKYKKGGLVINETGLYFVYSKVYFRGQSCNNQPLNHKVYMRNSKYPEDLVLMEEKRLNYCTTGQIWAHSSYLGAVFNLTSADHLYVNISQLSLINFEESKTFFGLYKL

[3] = target: T1, Full length TNF-gamma-beta on the cell …; assay: flow cytometry competition on TNF-gamma-beta expressing cells; competitor DR3-Fc
[4] = target: T3, AIM-II expressed on HEK 293 EBNA cells (UniProt O43557 1-240); assay: flow cytometry on AIM-II-transfected HEK 293 EBNA cells
T3 construct: whole, on cells
Experimental: For detecting Fc-fusion protein, cells were stained with FITC-conjugated goat anti-human IgG. […] The cells were analyzed by FACScan (Becton Dickinson).

[5] = target: T4, Fas receptor on human cells (Jurkat, HT-29) (human, UniProt P25445 26-335); assay: cell-based or functional assay
T4 sequence (looked up): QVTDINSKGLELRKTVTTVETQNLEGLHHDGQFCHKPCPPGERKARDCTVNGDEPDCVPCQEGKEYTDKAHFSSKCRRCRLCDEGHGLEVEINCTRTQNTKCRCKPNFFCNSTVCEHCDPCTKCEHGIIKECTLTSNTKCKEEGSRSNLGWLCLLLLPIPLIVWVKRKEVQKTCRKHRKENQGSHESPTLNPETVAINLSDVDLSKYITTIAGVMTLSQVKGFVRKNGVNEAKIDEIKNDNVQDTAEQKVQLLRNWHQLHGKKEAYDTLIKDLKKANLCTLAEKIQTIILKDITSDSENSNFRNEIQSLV

T3 sequence (O43557 whole entry): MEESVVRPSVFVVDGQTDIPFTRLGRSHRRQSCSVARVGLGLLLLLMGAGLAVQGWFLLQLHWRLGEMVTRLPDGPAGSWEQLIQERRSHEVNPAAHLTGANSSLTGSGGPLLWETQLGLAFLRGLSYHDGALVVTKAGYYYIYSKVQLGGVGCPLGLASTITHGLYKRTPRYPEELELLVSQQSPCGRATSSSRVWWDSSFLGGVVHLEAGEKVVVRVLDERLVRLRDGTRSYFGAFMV

binding result [1]: no binding
B1: OPG-Fc (Fc-fusion form of the extracellular domain) (Fc fusion, UniProt O00300 22-194, looked up)
chain: ETFPPKYLHYDEETSHQLLCDKCPPGTYLKQHCTAKWKTVCAPCPDHYYTDSWHTSDECLYCSPVCKELQYVKQECNRTHNRVCECKEGRYLEIEFCLKHRSCPPGFGVVQAGTPERNTVCKRCPDGFFSNETSSKAPCRKHTNCSVFGLLLTQKGNATHDNICSGNSESTQK
notes: extracellular domain; not shown: Fc portion

binding result [1]: no binding
B2: DcR1-Fc (Fc-fusion form of the extracellular domain) (Fc fusion, UniProt O14798 26-221, looked up)
chain: ATTARQEEVPQQTVAPQQQRHSFKGEECPAGSHRSEHTGACNPCTEGVDYTNASNNEPSCFPCTVCKSDQKHKSSCTMTRDTVCQCKEGTFRNENSPEMCRKCSRCPSGEVQVSNCTSWDDIQCVEEFGANATVETPAAEETMNTSPGTPAPAAEETMNTSPGTPAPAAEETMTTSPGTPAPAAEETMTTSPGTPA
notes: as for B1

B3: TNFR6 alpha-Fc (full length TNFR-6 alpha, amino acids 1-300 of SEQ ID NO:2, fused to an Fc domain of human IgG1) (Fc fusion, not shown: a dimerising Fc or GST)
chain: VAETPTYPWRDAETGERLVCAQCPPGTFVQRPCRRDSPTTCGPCPPRHYTQFWNYLERCRYCNVLCGEREEEARACHATHNRACRCRTGFFAHAGFCLEHASCPPGAGVIAPGTPSQNTQCQPCPPGTFSASSSSSEQCQPHRNCTALGLALNVPGSSSHDTLCTSCTGFPLSTRVPGAEECERAVIDFVAFQDISIKRLQRLLQALEAPEGWGPTPRAGRAALQLKLRRRLTELLGAQDGALLVRLLQALRVARMPGLERSVRERFLPVH
potency relative to Fas-Fc, killing of A20 cells by murine FasL transfected L929 cells [2]: 100 fold

molar ratio (TR6 to DR3-Fc) at which no DR3-Fc binding was detected [3]: 2 mol/mol
B4: TR6 (full-length human TNFR-6 alpha without Fc) (receptor)
chain: VAETPTYPWRDAETGERLVCAQCPPGTFVQRPCRRDSPTTCGPCPPRHYTQFWNYLERCRYCNVLCGEREEEARACHATHNRACRCRTGFFAHAGFCLEHASCPPGAGVIAPGTPSQNTQCQPCPPGTFSASSSSSEQCQPHRNCTALGLALNVPGSSSHDTLCTSCTGFPLSTRVPGAEECERAVIDFVAFQDISIKRLQRLLQALEAPEGWGPTPRAGRAALQLKLRRRLTELLGAQDGALLVRLLQALRVARMPGLERSVRERFLPVH
notes: Full-length cDNA (aa 1-300) expressed in Sf9 cells; also called TR6-non-Fc; TR6 non-Fc

binding result [4]: binds
B5: HVEM/TR2-Fc (Fc fusion)
chain: LPSCKEDEYPVGSECCPKCSPGYRVKEACGELTGTVCEPCPPGTYIAHLNGLSKCLQCQMCDPAMGLRASRNCSRTENAVCGCSPGHFCIVQDGDHCAACRAYATSSPGQRVQKGGTESQDTLCQNCPPGTFSPNGTLEECQHQTKCSWLVTKAGAGTSSSHWV
notes: also called soluble form of HVEM/TR2-Fc; not shown: Fc portion

increase in apoptotic Jurkat cells over untreated controls (annexin FACS) [5]: ~7 fold
B6: Soluble human FLAG-FasL (synthesized at HGS) (ligand, UniProt P48023 130-281, looked up, not shown: small tags and cut ends)
chain: QIGHPSPPPEKKELRKVAHLTGKSNSRSMPLEWEDTYGIVLLSGVKYKKGGLVINETGLYFVYSKVYFRGQSCNNLPLSHKVYMRNSKYPQDLVMMEGKMMSYCTTGQMWARSSYLGAVFNLTSADHLYVNVSELSLVNFEESQTFFGLYKL

binding result [4]: binds
B7: LTβR-Fc (Fc fusion, UniProt P36941 31-227, looked up)
chain: QAVPPYASENQTCRDQEKEYYEPQHRICCSRCPPGTYVSAKCSRIRDTVCATCAENSYNEHWNYLTICQLCRPCDPVMGLEEIAPCTSKRKTQCRCQPGMFCAAWALECTHCELLSDCPPGTEAELKDEVGKGNNHCVPCKAGHFQNTSSPSARCQPHTRCENQGLVEAAPGTAQSDTTCKNPLEPLPPEMSGTMLM
notes: also called LTbetaR-Fc; LTBR-Fc; not shown: Fc portion

Source: patent publication US20040013664A1 (published 2004)
